Like-named read-outs stand apart in the source and are kept apart here.
Experiments:
Experiment in all cases: FRET or BRET
[1] = target: HC-Pro^Tu-CFP (turnip mosaic virus)
[2] = target: HC-Pro^Tu-K-CFP (turnip mosaic virus)
[3] = target: HC-Pro^Tu-K-CFP (turnip mosaic virus); remark: listed apart in the source
[4] = target: HC-Pro^Tu-CFP (turnip mosaic virus); remark: listed apart in the source

HC-Pro^Tu-CFP (natural protein)
FRET efficiency [1]: 70%

HC-Pro^Tu-K-CFP (natural protein)
FRET efficiency [2]: 72%

B1: YFP-ATG8a (natural protein)
chain: MAKSSFKISNPLEARMSESSRIREKYPDRIPVIVEKAGQSDVPDIDKKKYLVPADLTVGQFVYVVRKRIKLGAEKAIFVFVKNTLPPTAALMSAIYEEHKDEDGFLYMTYSGENTFG
FRET efficiency [3]: 30% | FRET efficiency [4]: 30%

B2: YFP-HEN1 (enzyme)
chain: MAGGGKHTPTPKAIIHQKFGAKASYTVEEVHDSSQSGCLGLAIPQKGPCLYRCHLQLPEFSVVSNVFKKKKDSEQSAAELALDKLGIRPQNDDLTVDEARDEIVGRIKYIFSDEFLSAEHPLGAHLRAALRRDGERCGSVPVSVIATVDAKINSRCKIINPSVESDPFLAISYVMKAAAKLADYIVASPHGLRRKNAYPSEIVEALATHVSDSLHSREVAAVYIPCIDEEVVELDTLYISSNRHYLDSIAERLGLKDGNQVMISRMFGKASCGSECRLYSEIPKKYLDNSSDASGTSNEDSSHIVKSRNARASYICGQDIHGDAILASVGYRWKSDDLDYDDVTVNSFYRICCGMSPNGIYKISRQAVIAAQLPFAFTTKSNWRGPLPREILGLFCHQHRLAEPILSSSTAPVKSLSDIFRSHKKLKVSGVDDANENLSRQKEDTPGLGHGFRCEVKIFTKSQDLVLECSPRKFYEKENDAIQNASLKALLWFSKFFADLDVDGEQSCDTDDDQDTKSSSPNVFAAPPILQKEHSSESKNTNVLSAEKRVQSITNGSVVSICYSLSLAVDPEYSSDGESPREDNESNEEMESEYSANCESSVELIESNEEIEFEVGTGSMNPHIESEVTQMTVGEYASFRMTPPDAAEALILAVGSDTVRIRSLLSERPCLNYNILLLGVKGPSEERMEAAFFKPPLSKQRVEYALKHIRESSASTLVDFGCGSGSLLDSLLDYPTSLQTIIGVDISPKGLARAAKMLHVKLNKEACNVKSATLYDGSILEFDSRLHDVDIGTCLEVIEHMEEDQACEFGEKVLSLFHPKLLIVSTPNYEFNTILQRSTPETQEENNSEPQLPKFRNHDHKFEWTREQFNQWASKLGKRHNYSVEFSGVGGSGEVEPGFASQIAIFRREASSVENVAESSMQPYKVIWEWKKEDVEKKKTDL
FRET efficiency [4]: 55%

Reference: article PMC11906750
